This is an account of results in PMC6641210 (2019).

Several values for one entry are separate records, joined by “and”; a condition that tells them apart may be missing. Identical values can stand only once. Like-named read-outs stand apart in the source and are kept apart here.

Test [1] addresses human IgG1 anti-Tissue Factor antibody 25G1 with a kappa light chain (human). The experiment in a line: SPR; Biacore X100, 25°C, HBS-EP+ (0.01 M HEPES pH 7.4, 0.15 M NaCl, 3 mM EDTA, 0.05% P20); antibody (5.3 nM) captured by its kappa light chain on a Protein L Sensor Chip, FcγRIIIA ECD injected 30 s at 30 µl/min; five-point titration in triplicate; kinetic fit, 1:1 Langmuir binding model. (In general: In SPR one partner is held on a chip, and binding of the other changes the refractive index at the surface.)

The target in test [2] is chimeric rabbit IgG: variable regions of human 25G1 on rabbit IgG heavy and rabbit kappa (K2) light chain constant regions (human | rabbit (Oryctolagus cuniculus)). The description is as above.
The target in test [3] is chimeric pig IgG1: variable regions of human 25G1 on pig IgG1 heavy and pig kappa light chain constant regions (human | pig (Sus scrofa)). The test is described as above.
Test [4] has as its target ADCC-enhanced human IgG1 25G1 with S239D/I332E (human). The test is described as above.
The target is the same in test [5]. The experiment in a line: SPR.
In test [6] the target is human IgG1 anti-Tissue Factor antibody 25G1 with a kappa light chain (human). Description: SPR; Biacore X100, 25°C, HBS-EP+; antibody captured on a Protein L Sensor Chip, five-point titration of FcγRIIIA ECD in triplicate; steady-state affinity model.
In test [7] the target is chimeric rabbit IgG: variable regions of human 25G1 on rabbit IgG heavy and rabbit kappa (K2) light chain constant regions (human | rabbit (Oryctolagus cuniculus)). The test is described as above.
Test [8] addresses chimeric pig IgG1: variable regions of human 25G1 on pig IgG1 heavy and pig kappa light chain constant regions (human | pig (Sus scrofa)). Described as above.
Test [9] deals with ADCC-enhanced human IgG1 (25G1) with the S239D/I332E mutations (human). The experiment in a line: SPR; antibody (5.3 nM) captured by its kappa light chain on a Protein L sensor chip, FcγRIIIA ECD injected as analyte; Biacore X100, 25°C, HBS-EP+ (0.01 M HEPES pH 7.4, 0.15 M NaCl, 3 mM EDTA, 0.05% P20); five-point titration in triplicate, 1:1 Langmuir binding model (kinetic).
Test [10] concerns the target rabbit chimera of human IgG1 25G1 (human 25G1 variable regions on rabbit IgG heavy chain and rabbit kappa K2 light chain constant regions) (rabbit (Oryctolagus cuniculus)). The description is as above.
Test [11] concerns the target pig chimera of human IgG1 25G1 (human 25G1 variable regions on pig IgG1 heavy chain and pig kappa light chain constant regions) (pig (Sus scrofa)). Described as above.
The target in test [12] is human IgG1 antibody with a kappa light chain (human anti-Tissue Factor antibody 25G1) (human). The description is as above.
Test [13] deals with biotinylated rabbit IgG (Jackson 011-060-003) (rabbit). Description: SPR; biotinylated rabbit IgG immobilised on a streptavidin Sensor Chip SA, titration of rabbit FcγRIIIA as analyte; steady-state affinity analysis, average of a triplicate.
For test [14], the target named is T1, chimeric rabbit IgG: variable regions of human 25G1 on rabbit IgG heavy and rabbit kappa (K2) light chain constant regions (human | rabbit (Oryctolagus cuniculus)). Description: SPR; Biacore X100, 25°C, HBS-EP+; antibody captured on a Protein L Sensor Chip, five-point titration of FcγRIIIA ECD in triplicate; steady-state affinity model. The source holds these as a separate data set.

Test [15] has as its target T2, human IgG1 anti-Tissue Factor antibody 25G1 with a kappa light chain (human). The test is described as above. This is another data set of the same source.
Test [16] concerns the target T1, chimeric rabbit IgG: variable regions …. Description: SPR; Biacore X100, 25°C, HBS-EP+ (0.01 M HEPES pH 7.4, 0.15 M NaCl, 3 mM EDTA, 0.05% P20); antibody (5.3 nM) captured by its kappa light chain on a Protein L Sensor Chip, FcγRIIIA ECD injected 30 s at 30 µl/min; five-point titration in triplicate; kinetic fit, 1:1 Langmuir binding model. This is another data set of the same source.

The target of test [17] is T2, human IgG1 anti-Tissue Factor antibody …. The description is as above. This is another data set of the same source.
Test [18] addresses ADCC-enhanced human IgG1 (25G1) with the S239D/I332E mutations (human). Description: SPR; antibody (5.3 nM) captured by its kappa light chain on a Protein L sensor chip, FcγRIIIA ECD injected as analyte; Biacore X100, 25°C, HBS-EP+ (0.01 M HEPES pH 7.4, 0.15 M NaCl, 3 mM EDTA, 0.05% P20); five-point titration in triplicate, 1:1 Langmuir binding model (kinetic). This is another data set of the same source.

Test [19] addresses human IgG1 antibody with a kappa light chain (human anti-Tissue Factor antibody 25G1) (human). The test is described as above. This is another data set of the same source.
Test [20] has as its target rabbit chimera of human IgG1 25G1 (human 25G1 variable regions on rabbit IgG heavy chain and rabbit kappa K2 light chain constant regions) (rabbit (Oryctolagus cuniculus)). Described as above. The source holds these as a separate data set.
Test [21] has as its target T3, pig FcγRIIIA extracellular domain fragment (pig, UniProt Q28942 20-209).
T3 chain: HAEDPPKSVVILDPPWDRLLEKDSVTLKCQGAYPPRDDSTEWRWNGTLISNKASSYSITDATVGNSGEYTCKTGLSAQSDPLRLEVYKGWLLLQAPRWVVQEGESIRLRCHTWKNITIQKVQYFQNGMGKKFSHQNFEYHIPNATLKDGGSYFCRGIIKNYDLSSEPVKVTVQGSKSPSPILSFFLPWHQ
The experiment in a line: SPR.

The target of test [22] is T4, rabbit FcγRIIIA extracellular domain fragment (rabbit (Oryctolagus cuniculus)).
T4 chain: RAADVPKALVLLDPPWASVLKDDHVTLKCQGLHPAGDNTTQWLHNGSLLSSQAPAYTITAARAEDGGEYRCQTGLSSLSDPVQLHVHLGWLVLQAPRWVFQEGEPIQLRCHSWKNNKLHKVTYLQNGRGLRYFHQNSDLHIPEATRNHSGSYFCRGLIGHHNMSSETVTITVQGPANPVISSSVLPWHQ
Description: SPR.

B1: pig FcγRIIIA extracellular domain fragment (receptor)
chain: T3 chain
What is called Kd is the free concentration of one partner at which half of the binding sites on the other are occupied at equilibrium, for simple one-to-one binding. For orientation: koff means the rate constant with which the complex falls apart. As usually defined, the kon is the rate constant with which the complex forms. B1: the Kd was 8060 nM in [1]; 10900 nM in [2]; 726 nM in test [4]; 638 nM in [5]; 14700 nM in [6]; 13200 nM in test [7]. Further, the Kd in test [8] is 3970 nM; in test [11], 4730 nM. Also, the koff in test [1] came out at 0.05 s⁻¹; in test [2] it was 0.08 s⁻¹; in [3], 0.28 s⁻¹; in test [4] it was 0.35 s⁻¹. In addition, the kon in [1] amounted to 5920 M⁻¹ s⁻¹; in test [2], 7110 M⁻¹ s⁻¹; in test [3] it was 59700 M⁻¹ s⁻¹; in [4], 480000 M⁻¹ s⁻¹. For the same molecule, the fold deterioration of kd relative to hIgG1 in test [9] is 7 fold. Further, in [9], the fold improvement of KD relative to hIgG1 was greater than 10 fold. The molecule also yielded a difference of kinetic KD between hIgG1 and rIgG in test [10] of 30%. The same molecule gave a fold reduction of affinity relative to hFcγRIIIA in test [12] of 13 fold.

B2: rabbit FcγRIIIA extracellular domain fragment (receptor)
chain: T4 chain
modifications: not checked
Regarding B2, the Kd in test [13] worked out at 1320 nM; in [14], 1990 nM; in test [15], 2170 nM; in test [17], 2710 nM; in test [20], 2450 nM. Besides, the koff worked out at 0.34 s⁻¹ in [16] and 0.33 s⁻¹ in [17]. The on-rate (kon) was 140000 M⁻¹ s⁻¹ in [16] and 122000 M⁻¹ s⁻¹ in test [17]. Besides, the fold improvement of KD relative to hIgG1 in test [18] is greater than 10 fold. In test [19], this molecule displayed a fold reduction of affinity relative to hFcγRIIIA of 4 fold. The molecule further displayed a difference of kinetic KD between hIgG1 and rIgG in [20] of 10%.

B3: human IgG1 antibody with a kappa light chain (human anti-Tissue Factor antibody 25G1) (antibody)
chain 1: QVQLVQSGAEVKKPGASVKVSCKASGYTFRSYGISWVRQAPGQGLEWMGWVAPYSGNTNYAQKLQGRVTMTTDTSTSTAYMELRSLRSDDTAVYYCARDAGTYSPYGYGMDVWGQGTTVTVSS
chain 2: DIQMTQSPSTLSASVGDRVTITCRASHSIDSWLAWYQQKPGKAPKLLIYKASYLESGVPSRFSGSGSGTEFTLTISSLQPDDFATYYCQLFQSLPPFTFGGGTKVEIK
On to B3, for which the dissociation constant Kd in test [21] is 8060 nM and 14700 nM; in test [22], 2170 nM and 2710 nM.
